This is an account of results in publication PMC4579555, “The Cryo-EM structure of the CorA channel from Methanocaldococcus jannaschii in low magnesium conditions” (Biochimica et Biophysica Acta, 2015).

Usually stoichiometry N stands for the number of molecules, sites or subunits per partner or assembly.

This data set deals with the molecule itself. In words: self-rotation function of X-ray crystallographic data; crystals grown at low pH (0.1 M sodium citrate pH 3.5, 50 mM magnesium sulphate, 50 mM cobalt chloride, 0.1 M NaCl, 13% PEG 4000, 0.9% beta-octylmaltoside); data to 9.0 A, spacegroup P2(1); structure not phased; POLARRFN self-rotation function, data to 12 A.

B1: Methanocaldococcus jannaschii CorA channel (natural protein)
chain: MITVIAIAKDGSIVEPKLDEISFEDYRLIWIDCYDPKDEELYKLSKKIGISVSDLQIGLDEQEIPRVEEDEDFYLIIYKAPLFEEDITTTSLGIYIKNNLLLTIHSDKIKAIGRLHKLISTKKPRIVFERGIGFLLYHILNEITRSYSRILMNLEDELEELEDKLLAGYDREVMEKILGLRKTLVYFHKSLIANRDVLVLLKRKYLPITTKEDRENFEDLYYDTLQLIDMSATYREVLTSMMDITLSLENIKMNQIMKILTMVTTIFAVPMWITGIYGMNFSYLPLANNPQGFWLVMALMVVIIMIFVYIFRRSGWI
notes: CorA magnesium channel of Methanocaldococcus jannaschii (MjCorA); holds the N-terminal, conical and trans-membrane domains; also called MjCorA; source: final buffer 200 mM NaCl, 20 mM Tris/HCl pH8, 0.04% DDM
Regarding B1, the “stoichiometry N” value was found to be 5.
